Assay results taken from patent US20030186281A1, “Modified tetracycline repressor protein compositions and methods of use” (priority 2001, published 2003).
Numbering of substitutions follows the chain as printed. Names and notes keep the numbering of the source.

B1: TetRrevAtc4-70: revTetR(BD) D53A A61P (protein)
chain: MSRLDKSKVINSALELLNEVGIEGLTTRKLAQKLGVEQPTLYWHVKNKRALLAALAVEILPRHHDYSLPAAGESWQSFLRNNAMSFRRALLRYRDGAKVHLGTRPDEKQYDTVETQLRFMTENGFSLRDGLYAISAVSHFTLGAVLEQQEHTAALTDRPAAPDENLPPLLREALQIMDSDDGEQAFLHGLESLIRGFEVQLTALLQIV
modifications: Modified tetracycline repressor
notes: revTetR(BD) D53A A61P
B2: TetRrev6-54: revTetR(BD) Y93F D95N V99F (protein)
chain: B1 chain with A53D, P61A, Y93F, D95N, V99F
modifications: Modified tetracycline repressor
notes: revTetR(BD) Y93F D95N V99F
B3: TetRrev6-38: revTetR(BD) Y93H G96W K98Q V99G (protein)
chain: B1 chain with A53D, P61A, Y93H, G96W, K98Q, V99G
modifications: Modified tetracycline repressor
notes: revTetR(BD) Y93H G96W K98Q V99G
B4: TetRrev6-53: revTetR(BD) A97P K98R V99D (protein)
chain: B1 chain with A53D, P61A, A97P, K98R, V99D
modifications: Modified tetracycline repressor
notes: revTetR(BD) A97P K98R V99D
B5: TetRrevDox4-2: revTetR(BD) D53E A54S I59M A61P (protein)
chain: B1 chain with A53E, A54S, I59M
modifications: Modified tetracycline repressor
notes: revTetR(BD) D53E A54S I59M A61P
B6: TetRrev6-35: revTetR(BD) D95Y V99E (protein)
chain: B1 chain with A53D, P61A, D95Y, V99E
modifications: Modified tetracycline repressor
notes: revTetR(BD) D95Y V99E
B7: TetRrev6-13: revTetR(BD) G96R L101I (protein)
chain: B1 chain with A53D, P61A, G96R, L101I
modifications: Modified tetracycline repressor
notes: revTetR(BD) G96R L101I
B8: TetRrev04-4: revTetR(BD) G96E V113A (protein)
chain: B1 chain with A53D, P61A, G96E, V113A
modifications: Modified tetracycline repressor
notes: revTetR(BD) G96E V113A
B9: TetRrevAtc4-71: revTetR(BD) D53T L55M 56P A61S (protein)
chain: B1 chain with A53T, L55M, A56P, P61S
modifications: Modified tetracycline repressor
notes: revTetR(BD) D53T L55M 56P A61S
B10: TetRrev6-33: revTetR(BD) A97T K98R V99G (protein)
chain: B1 chain with A53D, P61A, A97T, K98R, V99G
modifications: Modified tetracycline repressor
notes: revTetR(BD) A97T K98R V99G
B11: TetRrev4/6-3: revTetR(BD) D95A V99G (protein)
chain: B1 chain with A53D, P61A, D95A, V99G
modifications: Modified tetracycline repressor
notes: revTetR(BD) D95A V99G
B12: TetRrev6-23: revTetR(BD) D95E A97E (protein)
chain: B1 chain with A53D, P61A, D95E, A97E
modifications: Modified tetracycline repressor
notes: revTetR(BD) D95E A97E
B13: TetRrevDox4-1: revTetR(BD) D53E A54S A61P (protein)
chain: B1 chain with A53E, A54S
modifications: Modified tetracycline repressor
notes: revTetR(BD) D53E A54S A61P
B14: TetRrev6-3: revTetR(BD) V99G H100P (protein)
chain: B1 chain with A53D, P61A, V99G, H100P
modifications: Modified tetracycline repressor
notes: revTetR(BD) V99G H100P
B15: TetRrev6-32: revTetR(BD) L79V A97T K98R V99G (protein)
chain: B1 chain with A53D, P61A, L79V, A97T, K98R, V99G
modifications: Modified tetracycline repressor
notes: revTetR(BD) L79V A97T K98R V99G
B16: TetRrev6-27: revTetR(BD) A71T G96E (protein)
chain: B1 chain with A53D, P61A, A71T, G96E
modifications: Modified tetracycline repressor
notes: revTetR(BD) A71T G96E
B17: TetRrevAtc4-9b: revTetR(BD) A56P V57L E58V L60L (protein)
chain: B1 chain with A53D, A56P, V57L, E58V, P61A
modifications: Modified tetracycline repressor
notes: revTetR(BD) A56P V57L E58V L60L
B18: TetRrev6-26: revTetR(BD) Y93F G96W A97E H100N (protein)
chain: B1 chain with A53D, P61A, Y93F, G96W, A97E, H100N
modifications: Modified tetracycline repressor
notes: revTetR(BD) Y93F G96W A97E H100N
B19: TetRrev04-1: revTetR(BD) G96E K98T (protein)
chain: B1 chain with A53D, P61A, G96E, K98T
modifications: Modified tetracycline repressor
notes: revTetR(BD) G96E K98T
B20: TetRrev4/6-4: revTetR(BD) D95A V99G V57V A61G (protein)
chain: B1 chain with A53D, P61G, D95A, V99G
modifications: Modified tetracycline repressor
notes: revTetR(BD) D95A V99G V57V A61G
B21: TetRrev6-31: revTetR(BD) G96Q G102S (protein)
chain: B1 chain with A53D, P61A, G96Q, G102S
modifications: Modified tetracycline repressor
notes: revTetR(BD) G96Q G102S
B22: TetRrevAtc4-9: revTetR(BD) L52M A56P V57L E58V L60L H188Y (protein)
chain: B1 chain with L52M, A53D, L55M, A56P, V57L, E58V, P61A, H188Y
modifications: Modified tetracycline repressor
notes: revTetR(BD) L52M A56P V57L E58V L60L H188Y
B23: TetRrev6-34: revTetR(BD) R94L D95A H100 (protein)
chain: B1 chain with A53D, P61A, R94L, D95A, H100Q
modifications: H100 change unspecified; Modified tetracycline repressor
notes: revTetR(BD) R94L D95A H100
B24: TetRrev6-50: revTetR(BD) V99G (protein)
chain: B1 chain with A53D, P61A, V99G
modifications: Modified tetracycline repressor
notes: revTetR(BD) V99G
B25: TetRrev6-51: revTetR(BD) A97T V99G (protein)
chain: B1 chain with A53D, P61A, A97T, V99G
modifications: Modified tetracycline repressor
notes: revTetR(BD) A97T V99G
B26: TetRrev6-37-1: revTetR(BD) G96R A97S V99L (protein)
chain: B1 chain with A53D, P61A, G96R, A97S, V99L
modifications: Modified tetracycline repressor
notes: revTetR(BD) G96R A97S V99L
B27: TetRrev6-17: revTetR(BD) R94G G96W (protein)
chain: B1 chain with A53D, P61A, R94G, G96W
modifications: Modified tetracycline repressor
notes: revTetR(BD) R94G G96W
B28: TetRrev6-2: revTetR(BD) D95G G96R H100L (protein)
chain: B1 chain with A53D, P61A, D95G, G96R, H100L
modifications: Modified tetracycline repressor
notes: revTetR(BD) D95G G96R H100L
B29: TetRrev6-25: revTetR(BD) Y93S D95E G102A (protein)
chain: B1 chain with A53D, P61A, Y93S, D95E, G102A
modifications: Modified tetracycline repressor
notes: revTetR(BD) Y93S D95E G102A

System: tet operator sequence
Assay: β-galactosidase activity of a tetracycline-regulated promoter in transformed E. coli with revTetR, in the presence and absence of anhydrotetracycline (atc)
Assay type: cell-based, Escherichia coli
Conditions: RevTetR isolate cultured in the absence of anhydrotetracycline (ATC)
Method in brief: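 TetR(BD) chimera mutants (TetR(B) residues 1–50, TetR(D) 51–208) expressed in E. coli regulating a tet operator-controlled lacZ. β-Galactosidase measured in Miller units at 28 °C and 37 °C with and without anhydrotetracycline; reported as percent of maximal expression without Tet repressor.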

Molecule	β-Galactosidase Activity, Cultured Without ATC
B1	16.119
B2	6.393
B3	96.194
B4	107.107
B5	58.776
B6	74.8797
B7	15.7835
B8	99.655
B9	70.197
B10	108.964
B11	69.291
B12	101
B13	36.03
B14	23.0695
B15	79.3731
B16	108.105
B17	107.982
B18	53.6535
B19	102.092
B20	96.491
B21	55.658
B22	97.1039
B23	85.725
B24	60.464
B25	93.974
B26	55.277
B27	56.5081
B28	95.487
B29	42.8584

Same assay, conditions: RevTetR isolate cultured in the presence of anhydrotetracycline (ATC)

Molecule	β-Galactosidase Activity, Cultured With ATC
B1	11.125
B2	1.268
B3	46.91
B4	27.918
B5	9.547
B6	7.0255
B7	2.5043
B8	19.878
B9	7.372
B10	2.984
B11	0.878
B12	49
B13	5.627
B14	1.3657
B15	3.789
B16	44.43
B17	1.0594
B18	6.9688
B19	44.145
B20	1.639
B21	35.26
B22	1.8695
B23	40.254
B24	2.469
B25	4.499
B26	20.04
B27	12.5
B28	18.3
B29	4.136
